Reference: patent US20060223116

Key:
[1] = system: T1, truncated GST-fusion T-bet protein, N-terminal fragment
T1 sequence (Q9UL17 whole entry, species assumed, looked up): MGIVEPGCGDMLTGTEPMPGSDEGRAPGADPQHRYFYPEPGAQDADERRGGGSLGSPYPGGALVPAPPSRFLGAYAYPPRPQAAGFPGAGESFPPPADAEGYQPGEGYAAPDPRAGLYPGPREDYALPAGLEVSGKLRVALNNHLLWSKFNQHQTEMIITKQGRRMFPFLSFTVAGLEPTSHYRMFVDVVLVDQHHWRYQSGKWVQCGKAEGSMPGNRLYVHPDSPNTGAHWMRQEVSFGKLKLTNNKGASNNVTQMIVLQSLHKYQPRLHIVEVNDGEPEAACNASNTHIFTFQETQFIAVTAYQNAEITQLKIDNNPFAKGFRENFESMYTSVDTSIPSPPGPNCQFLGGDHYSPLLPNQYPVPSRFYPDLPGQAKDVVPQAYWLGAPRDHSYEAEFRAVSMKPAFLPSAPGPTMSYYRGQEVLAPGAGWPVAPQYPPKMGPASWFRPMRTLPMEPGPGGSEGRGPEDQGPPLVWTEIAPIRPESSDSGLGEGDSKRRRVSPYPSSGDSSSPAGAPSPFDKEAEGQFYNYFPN

[2] = system: T2, truncated GST-fusion T-bet protein, C-terminal fragment
T2 sequence (Q9UL17 whole entry, species assumed, looked up): T1 sequence (Q9UL17 whole entry, species assumed, looked up)

Substance: RLK-MYC (resting lymphocyte kinase, MYC-tagged)
- in vitro kinase assay (32P-ATP, autoradiography) [1]: both the N and C terminal fragments but not the DNA binding domain, could be phosphorylated by the Tec kinases, ITK and RLK
- in vitro kinase assay (32P-ATP, autoradiography) [2]: both the N and C terminal fragments but not the DNA binding domain, could be phosphorylated by the Tec kinases, ITK and RLK
